Our source for the reduction in cAMP signaling in transiently transfected HEK-293 cells, 1 µM CPA with 10 μM forskolin, normalized to forskolin treated cells values is publication PMC7764039.

Sequences and labels used below:
B1: A1R, untagged (plasmid ARJ194: pCEP4 A1R) (receptor)
chain: MPPSISAFQAAYIGIEVLIALVSVPGNVLVIWAVKVNQALRDATFCFIVSLAVADVAVGALVIPLAILINIGPQTYFHTCLMVACPVLILTQSSILALLAIAVDRYLRVKIPLRYKMVVTPRRAAVAIAGCWILSFVVGLTPMFGWNNLSAVERAWAANGSMGEPVIKCEFEKVISMEYMVYFNFFVWVLPPLLLMVLIYLEVFYLIRKQLNKKVSASSGDPQKYYGKELKIAKSLALILFLFALSWLPLHILNCITLFCPSCHKPSILTYIAIFLTHGNSAMNPIVYAFRIQKFRVTFLKIWNDHFRCQPAPPIDEDLPEERPDD

The target in the assay is Gαi (endogenous in HEK-293 cells) (human (endogenous in HEK-293)) (UniProt P63096).
Chain of UniProt P63096 (P63096 whole entry): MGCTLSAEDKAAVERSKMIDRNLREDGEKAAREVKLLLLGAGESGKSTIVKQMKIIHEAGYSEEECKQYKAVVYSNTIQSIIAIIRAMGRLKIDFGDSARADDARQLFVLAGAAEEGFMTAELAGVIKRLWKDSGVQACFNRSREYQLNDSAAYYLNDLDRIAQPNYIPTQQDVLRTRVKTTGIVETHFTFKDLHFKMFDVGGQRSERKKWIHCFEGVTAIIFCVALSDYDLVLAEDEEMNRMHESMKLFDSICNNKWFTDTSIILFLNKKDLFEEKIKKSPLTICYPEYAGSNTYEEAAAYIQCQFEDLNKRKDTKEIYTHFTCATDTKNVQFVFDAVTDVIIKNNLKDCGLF
“A1/A2AR chimera, untagged (plasmid ARJ195: pCEP4 A1/A2AR) (from UniProt P30542 1-290; P29274 291-412) (receptor)” yielded a reduction in cAMP signaling in transiently transfected HEK-293 cells, 1 µM CPA with 10 μM forskolin, normalized to forskolin treated cells of 72%.
The value for “A1/A2AΔ316R truncated chimera, untagged (plasmid ARJ196: pCEP4 A1/A2AΔ316R) (from UniProt P30542 1-290; P29274 291-316) (receptor)” was 67%; that for B1 was 62%.
